Assay results taken from patent EP2970447B1 (Eli Lilly and Company, dated 2018).

Assays:
Experiment in all cases: SPR (Biacore 2000), antibody captured on Protein A, chemokine in solution, 25°C
human NAP-2 (CXCL7) = biological target: T1, human NAP-2 (CXCL7) (human, UniProt P02775 59-128)
T1 construct: also called human CXCL7 (NAP-2)
T1 sequence: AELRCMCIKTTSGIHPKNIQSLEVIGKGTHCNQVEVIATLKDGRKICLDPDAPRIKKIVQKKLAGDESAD

human Gro-gamma (CXCL3) = biological target: T2, human Gro-gamma (CXCL3) (human, UniProt P19876 35-107)
T2 construct: also called human CXCL3 (Gro gamma)
T2 sequence: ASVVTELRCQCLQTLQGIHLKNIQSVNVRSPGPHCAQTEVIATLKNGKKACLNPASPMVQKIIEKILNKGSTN

human ENA-78 (CXCL5) = biological target: T3, human ENA-78 (CXCL5) (human, UniProt P42830 41-114)
T3 construct: also called human CXCL5 (ENA-78)
T3 sequence: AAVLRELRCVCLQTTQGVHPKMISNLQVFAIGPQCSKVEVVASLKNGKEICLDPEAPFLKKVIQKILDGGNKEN

human GCP-2 (CXCL6) = biological target: T4, human GCP-2 (CXCL6) (human, UniProt P80162 40-114)
T4 construct: also called human CXCL6 (GCP-2)
T4 sequence: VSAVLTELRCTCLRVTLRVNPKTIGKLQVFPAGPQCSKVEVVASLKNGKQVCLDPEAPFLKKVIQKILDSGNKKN

human IL-8 (CXCL8) = biological target: T5, human IL-8 (CXCL8) (human, UniProt P10145 28-99)
T5 construct: also called human CXCL8 (IL-8); wild type human CXCL8
T5 sequence: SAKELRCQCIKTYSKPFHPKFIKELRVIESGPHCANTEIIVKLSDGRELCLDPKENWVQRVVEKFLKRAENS

human Gro-alpha (CXCL1) = biological target: T6, human Gro-alpha (CXCL1) (human, UniProt P09341 35-107)
T6 construct: also called human CXCL1(Gro alpha)
T6 sequence: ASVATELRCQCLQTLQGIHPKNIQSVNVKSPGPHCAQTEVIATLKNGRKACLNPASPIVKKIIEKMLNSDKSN

koff (human NAP-2 (CXCL7)): 2.18e-05 s⁻¹
koff (human Gro-gamma (CXCL3)): 1.76e-05 s⁻¹
koff (human ENA-78 (CXCL5)): 1.51e-05 s⁻¹
koff (human GCP-2 (CXCL6)): 6.11e-05 s⁻¹
koff (human IL-8 (CXCL8)): 1.24e-05 s⁻¹
koff (human Gro-alpha (CXCL1)): 1.53e-05 s⁻¹
B1: Antibody 2 (antibody, human IgG4 S228P, kappa, V domains shown)
VH: QVQLVQSGAEVKKPGASVKVSCKASGYEFTSYWIHWVRQAPGQGLEWMGNISPNSGSANYNEKFKSRVTMTRDTSTSTVYMELSSLRSEDTAVYYCAREGPYSYYPSRQYYGSDLWGQGTLVTVSS
VL: EIVLTQSPATLSLSPGERATLSCRASQSISNNLHWYQQKPGQAPRLLIYYTSRSVSGIPARFSGSGSGTDFTLTISSLEPEDFAVYYCGQNNEWPEVFGGGTKVEIKR
notes: Full-length antibody expressed in NS0 cells
